Test results as given in article PMC11575642 (Chemical Science, 2024).

Target: Glutathione peroxidase 4 (GPX4), endogenous in OS-RC-2 cells (Homo sapiens, OS-RC-2 cells, UniProt P36969)
Test: pull-down

B1: 4C-R10 (nanobody 4C fused at its C-terminus through an SGSGSG linker to the arginine-rich R10 cell-penetrating peptide) (VHH)
VHH: EVQLEESGGGSVQAGGSLRLSCAAPGDTSSRYYMGWFRQAPGKEREGVAGFSTGLGRTTYADSVKGRFTISQDNAKNTIYLQMNSLKVEDTAMYYCATGRAWAAGSPMYGPFDSRRYNYWGQGTQVTVSS
- binding result: binds
